Data on two molecules can be found in EP2225268B1.

Experiment [1] concerns the target Wild-type recombinant human NGAL dimer calibrators treated with DTT (human) (UniProt P80188). Briefly: … sandwich CMIA, capture HYB 211-01, detection acridinium-HYB 211-02; DTT-treated dimer calibrators against untreated dimer calibrators.
Experiment [2] concerns the target Native NGAL purchased from Diagnostics Development (Uppsala, Sweden), non-reduced (UniProt P80188). Briefly: … sandwich CMIA, capture HYB 211-01, detection acridinium-HYB 211-02; NGAL 5 ng/mL.
For experiment [3], the target named is Wild-type recombinant human NGAL monomer expressed in CHO cells (human) (UniProt P80188). Described as above.
Experiment [4] has as its target Wild-type recombinant human NGAL dimer expressed in CHO cells (human) (UniProt P80188). The description is as above.
For experiment [5], the target named is Wild-type recombinant human NGAL dimer calibrators treated with DTT (human) (UniProt P80188). Described as above.
For experiment [6], the target named is Native NGAL purchased from Diagnostics Development (Uppsala, Sweden), non-reduced (UniProt P80188). Briefly: … sandwich CMIA, capture HYB 211-01, detection acridinium-HYB 211-02; NGAL 600 ng/mL.
The target in experiment [7] is Wild-type recombinant human NGAL monomer expressed in CHO cells (human) (UniProt P80188). The experiment is described as above.
The target in experiment [8] is Wild-type recombinant human NGAL dimer expressed in CHO cells (human) (UniProt P80188). The experiment is described as above.
The target in experiment [9] is Wild-type recombinant human NGAL dimer calibrators treated with DTT (human) (UniProt P80188). The description is as above.
In experiment [10] the target is Native NGAL purchased from Diagnostics Development (Uppsala, Sweden), non-reduced (UniProt P80188). Briefly: … sandwich CMIA, capture HYB 211-01, detection acridinium-HYB 211-02; NGAL 1000 ng/mL.
Experiment [11] has as its target Wild-type recombinant human NGAL monomer expressed in CHO cells (human) (UniProt P80188). The description is as above.
The target of experiment [12] is Wild-type recombinant human NGAL dimer expressed in CHO cells (human) (UniProt P80188). The description is as above.
Experiment [13] deals with Wild-type recombinant human NGAL dimer calibrators treated with DTT (human) (UniProt P80188). The description is as above.
The target in experiment [14] is Native NGAL purchased from Diagnostics Development (Uppsala, Sweden), non-reduced (UniProt P80188). In words: … sandwich CMIA, capture HYB 211-01, detection acridinium-HYB 211-02; non-reduced control sample.
Experiment [15] addresses Wild-type recombinant human NGAL dimer calibrators with TCEP in the reaction mixture (human) (UniProt P80188). Briefly: … sandwich CMIA, capture 1-2322-455, detection acridinium-1-903-430; TCEP in reaction; curve fit with monomer calibrators; target 250 ng/mL.
For experiment [16], the target named is Wild-type recombinant human NGAL monomer expressed in CHO cells (human) (UniProt P80188). Briefly: … sandwich CMIA, capture 1-2322-455, detection acridinium-1-903-430; NGAL 600 ng/mL.
Experiment [17] deals with Wild-type recombinant human NGAL dimer expressed in CHO cells (human) (UniProt P80188). The experiment is described as above.
In experiment [18] the target is Wild-type recombinant human NGAL monomer expressed in CHO cells (human) (UniProt P80188). In words: … sandwich CMIA, capture 1-2322-455, detection acridinium-1-903-430; curve fit with monomer calibrators; target 5 ng/mL.
Experiment [19] addresses Wild-type recombinant human NGAL dimer expressed in CHO cells (human) (UniProt P80188). The experiment is described as above.
Experiment [20] deals with Wild-type recombinant human NGAL monomer expressed in CHO cells (human) (UniProt P80188). Briefly: … sandwich CMIA, capture 1-2322-455, detection acridinium-1-903-430; monomer calibrator plus TCEP; NGAL 250 ng/mL.
For experiment [21] the target is unchanged. Briefly: … sandwich CMIA, capture 1-2322-455, detection acridinium-1-903-430; curve fit with monomer calibrators; target 50 ng/mL.
Experiment [22] has as its target Wild-type recombinant human NGAL dimer expressed in CHO cells (human) (UniProt P80188). Described as above.
The target of experiment [23] is Wild-type recombinant human NGAL monomer expressed in CHO cells (human) (UniProt P80188). In words: … sandwich CMIA, capture 1-2322-455, detection acridinium-1-903-430; NGAL 50 ng/mL.
Experiment [24] concerns the target Wild-type recombinant human NGAL dimer expressed in CHO cells (human) (UniProt P80188). Described as above.
In experiment [25] the target is Wild-type recombinant human NGAL monomer expressed in CHO cells (human) (UniProt P80188). In words: … sandwich CMIA, capture 1-2322-455, detection acridinium-1-903-430; monomer calibrator plus TCEP; NGAL 600 ng/mL.
Experiment [26] has the same target. Briefly: … sandwich CMIA, capture 1-2322-455, detection acridinium-1-903-430; monomer calibrator plus TCEP; curve fit with monomer calibrators; target 1000 ng/mL.

With “anti-NGAL antibody HYB 211-01 from AntibodyShop A/S, Gentofte, Denmark”, the average % increase of NGAL concentration after reduction of dimers in [1] was 248%. In addition, the RLUs is 15300 RLUs in experiment [2]; 12000 RLUs in experiment [3]; 4050 RLUs in [4]; 11400 RLUs in [5]; 1.07e+06 RLUs in [6]; 691000 RLUs in experiment [7]. In addition, the RLUs worked out at 282000 RLUs in experiment [8]; 676000 RLUs in experiment [9]; 1.32e+06 RLUs in experiment [10]; 885000 RLUs in [11]; 390000 RLUs in [12]; 855000 RLUs in experiment [13]. This molecule also displayed an NGAL concentration detected in [14] of 13.7 ng/mL.

B1: antibody produced by murine hybridoma cell line 1-2322-455 having ATCC Accession No. PTA-8024 (antibody, V domains shown)
VH: EVQLVESGGGLVQPGGSLKLSCAASGFTFNNYYMSWVRQTPERRLEWVAYISSSGGSTYYSDSVRGRFTISRDTARNTLYLQMTSLKSEDTAMYYCARHFGDYSYFDYWGQGTTLTVSS
VL: DIQMTQSPASLSASVGETVTITCRASENFYSYLAWYQQKQGKSPQLLVYNAKTLAEGVPSRFSGSGSGTQFSLKINSLQPEDFGTYYCQHHYDIPLTFGAGTKLELKR
In the case of B1, the Curve Fit Results in experiment [15] was 126 ng/mL; in experiment [18] it was 4.7 ng/mL; in [19] it was 1.2 ng/mL; in experiment [21] it was 48.2 ng/mL; in experiment [22], 13.5 ng/mL; in [26] it was 1030 ng/mL. The RLUs was 1.51e+06 RLUs in experiment [16]; 680000 RLUs in [17]; 928000 RLUs in experiment [20]; 240000 RLUs in experiment [23]; 76800 RLUs in experiment [24]; 1.53e+06 RLUs in [25].
